We go through 13 molecules from PMC10397247.

Read-outs that look alike come from different tables or passages of the source.

Experiment in all cases: two-hybrid library CCmax;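 also: natural log of median RNA to DNA barcode read ratio; higher means stronger binding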
One assay has as its target T1, 4H464-AA.
T1 chain: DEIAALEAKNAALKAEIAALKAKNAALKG

For another assay, the target named is T2, 4H2903-AA.
T2 chain: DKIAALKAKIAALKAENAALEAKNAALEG
The following applies: mean of both orientations.

Another assay concerns the target T3, 4H446-AA.
T3 chain: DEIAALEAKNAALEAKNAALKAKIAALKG
The settings on record: mean of both orientations.

The target in a further assay is T4, 4H2961-AA.
T4 chain: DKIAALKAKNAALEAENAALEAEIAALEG
The settings on record: mean of both orientations.

Another assay deals with T5, 4H3969-AA.
T5 chain: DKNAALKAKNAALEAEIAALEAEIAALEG
The settings on record: mean of both orientations.

A further assay addresses T6, 4H2621-AA.
T6 chain: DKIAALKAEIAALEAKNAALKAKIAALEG
The settings on record: mean of both orientations.

In a further assay the target is T7, 4H63-AA.
T7 chain: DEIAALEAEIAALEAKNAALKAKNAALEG
The following applies: mean of both orientations.

The next assay concerns the target T8, 4H2592-AA.
T8 chain: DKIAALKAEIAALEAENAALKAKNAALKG
The following applies: mean of both orientations.

The target of a further assay is T9, O14-AA.
T9 chain: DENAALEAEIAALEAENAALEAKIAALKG
The settings on record: mean of both orientations.

For the next assay, the target named is T10, 4H1864-AA.
T10 chain: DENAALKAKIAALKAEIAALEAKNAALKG
The settings on record: mean of both orientations.

In the next assay the target is T11, 4H174-AA.
T11 chain: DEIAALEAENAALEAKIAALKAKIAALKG
The settings on record: mean of both orientations.

Another assay concerns the target T12, 4H2162-AA.
T12 chain: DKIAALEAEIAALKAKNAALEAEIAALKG
The settings on record: mean of both orientations.

A further assay has as its target T13, 4H1845-AA.
T13 chain: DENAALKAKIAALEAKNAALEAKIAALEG
The following applies: mean of both orientations.

A further assay concerns the target T14, AP6-AA.
T14 chain: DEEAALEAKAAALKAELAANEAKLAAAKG
The settings on record: mean of both orientations.

The target of another assay is T15, P6-AA-1HAA-N.
T15 chain: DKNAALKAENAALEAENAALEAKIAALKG
The following applies: mean of both orientations.

In a further assay the target is T16, 4H1867-AA.
T16 chain: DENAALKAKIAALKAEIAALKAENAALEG
The settings on record: mean of both orientations.

A further assay addresses T17, 4H2648-AA.
T17 chain: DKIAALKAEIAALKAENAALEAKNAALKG
The following applies: mean of both orientations.

Another assay concerns the target T18, P7-AA.
T18 chain: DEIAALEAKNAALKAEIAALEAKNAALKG
The settings on record: mean of both orientations.

In a further assay the target is T19, AP4-AA.
T19 chain: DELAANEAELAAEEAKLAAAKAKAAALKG
The settings on record: mean of both orientations.

For the next assay, the target named is T20, 4H906-AA.
T20 chain: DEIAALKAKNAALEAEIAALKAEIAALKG
The settings on record: mean of both orientations.

The target in the next assay is T21, 4H2277-AA.
T21 chain: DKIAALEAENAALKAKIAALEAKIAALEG
The following applies: mean of both orientations.

In a further assay the target is T22, AP1-AA.
T22 chain: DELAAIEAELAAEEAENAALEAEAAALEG
The following applies: mean of both orientations.

The target of a further assay is T23, 4H3056-AA.
T23 chain: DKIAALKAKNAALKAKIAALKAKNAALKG
The following applies: mean of both orientations.

In another assay the target is T24, 4H1636-AA.
T24 chain: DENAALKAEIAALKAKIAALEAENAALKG
The following applies: mean of both orientations.

Another assay deals with T25, 4H3413-AA.
T25 chain: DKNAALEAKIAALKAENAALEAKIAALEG
The settings on record: mean of both orientations.

For another assay, the target named is T26, 4H678-AA.
T26 chain: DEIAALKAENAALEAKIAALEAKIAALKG
The following applies: mean of both orientations.

For another assay, the target named is T27, 4H794-AA.
T27 chain: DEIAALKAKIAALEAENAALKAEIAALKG
The settings on record: mean of both orientations.

Another assay addresses T28, 4H3427-AA.
T28 chain: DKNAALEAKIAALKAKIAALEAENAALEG
The following applies: mean of both orientations.

Another assay deals with T29, 4H3378-AA.
T29 chain: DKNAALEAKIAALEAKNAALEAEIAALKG
The settings on record: mean of both orientations.

Another assay addresses T30, zCON9_D.
T30 chain: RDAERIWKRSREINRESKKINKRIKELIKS
The following applies: mean of both orientations.

In a further assay the target is T31, 4H2505-AA.
T31 chain: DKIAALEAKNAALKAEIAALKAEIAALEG
The following applies: mean of both orientations.

The target of a further assay is T32, 4H1552-AA.
T32 chain: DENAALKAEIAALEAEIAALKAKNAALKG
The following applies: mean of both orientations.

The next assay concerns the target T33, 4H1310-AA.
T33 chain: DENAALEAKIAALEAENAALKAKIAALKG

A further assay addresses T34, 4H1597-AA.
T34 chain: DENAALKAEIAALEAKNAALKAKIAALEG
The following applies: mean of both orientations.

Another assay concerns the target T35, 4H2622-AA.
T35 chain: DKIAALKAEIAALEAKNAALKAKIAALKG
The settings on record: mean of both orientations.

Another assay concerns the target T36, 4H3625-AA.
T36 chain: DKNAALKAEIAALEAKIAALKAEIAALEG
The following applies: mean of both orientations.

The target in a further assay is T37, 4H4038-AA.
T37 chain: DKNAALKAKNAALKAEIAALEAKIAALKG
The settings on record: mean of both orientations.

A further assay has as its target T38, 4H43-AA.
T38 chain: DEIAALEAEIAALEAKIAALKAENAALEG
The settings on record: mean of both orientations.

The next assay deals with T39, 4H335-AA.
T39 chain: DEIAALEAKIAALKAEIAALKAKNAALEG
The settings on record: mean of both orientations.

A further assay deals with T40, 4H2575-AA.
T40 chain: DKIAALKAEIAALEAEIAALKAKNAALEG
The settings on record: mean of both orientations.

Another assay addresses T41, 4H1913-AA.
T41 chain: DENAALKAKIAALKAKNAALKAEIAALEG
The following applies: mean of both orientations.

A further assay addresses T42, 4H3855-AA.
T42 chain: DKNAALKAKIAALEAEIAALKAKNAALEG
The settings on record: mean of both orientations.

B1: 4H249-AA (peptide)
chain: DEIAALEAENAALKAKNAALKAEIAALEG
As to B1, the interaction score with 4H464-AA (mean of both orientations) was -1.77; with 4H2903-AA, -0.757; in the assay with 4H446-AA, -1.26; in the assay with 4H2961-AA, 1.36; with 4H3969-AA, -1.58; with 4H2621-AA, -1.28. In addition, the interaction score with 4H63-AA was -1.75; in the assay with 4H2592-AA, -0.437.

B2: 4H171-AA (peptide)
chain: DEIAALEAENAALEAKIAALKAENAALEG
In the case of B2, the interaction score in the assay with O14-AA was -1.07; with 4H1864-AA, 0.435; with 4H174-AA, -1.16; in the assay with 4H2162-AA it was -1.5.

B3: 4H1401-AA (peptide)
chain: DENAALEAKIAALKAKNAALKAEIAALEG
As for B3, the interaction score with 4H1845-AA was -1.13; with AP6-AA it was -1.73; with P6-AA-1HAA-N, 1.57; with 4H1867-AA, -1.22; in the assay with 4H2648-AA, 0.46; with P7-AA it was -1.39. In addition, the interaction score was -1.22 with AP4-AA; -1.91 in the assay with 4H906-AA; -1.59 in the assay with 4H2277-AA; -1.76 with AP1-AA; -1.2 in the assay with 4H3056-AA; -1.81 in the assay with 4H1636-AA. Further, the interaction score with 4H3413-AA is 0.857; with 4H678-AA, -0.21; with 4H794-AA it was -1.02; in the assay with 4H3427-AA, -1.52; in the assay with 4H3378-AA, -0.723; with zCON9_D it was -1.37. In addition, the interaction score is -1.67 with 4H2505-AA and -0.741 with 4H1552-AA.

B4: 4H3606-AA (peptide)
chain: DKNAALKAEIAALEAENAALEAKIAALKG
As for B4, the interaction score with AP6-AA is -0.593; with P7-AA it was 1.24; with AP4-AA, -1.63; with 4H906-AA, -1.72; with AP1-AA, -1.62; with 4H678-AA, -0.771. Besides, the interaction score with 4H794-AA is -0.14; with zCON9_D, -1.76.

B5: 4H2253-AA (peptide)
chain: DKIAALEAENAALKAEIAALKAKIAALEG
B5: the interaction score in the assay with 4H2592-AA was -1.61.

B6: 4H1310-AA (peptide)
chain: DENAALEAKIAALEAENAALKAKIAALKG
Regarding B6, the interaction score was -0.784 with 4H1845-AA; -1.48 with 4H1864-AA; 1.62 with 4H1310-AA; -1.18 with 4H2648-AA; -1.47 with 4H3056-AA; 1.51 in the assay with 4H3413-AA. For the same molecule, the interaction score with 4H1597-AA is 0.746; with 4H3378-AA, -0.0826; with 4H174-AA, 0.83; in the assay with 4H2162-AA it was -0.945.

B7: 4H1385-AA (peptide)
chain: DENAALEAKIAALKAKIAALKAEIAALEG
Consider B7, for which the interaction score with 4H2622-AA is 1.24; with P6-AA-1HAA-N it was -0.2; with O14-AA, 2.08; in the assay with 4H1864-AA it was 0.56; with 4H3625-AA it was 1.76; with 4H4038-AA, 1.56. Also, the interaction score is -0.816 in the assay with 4H1597-AA, 0.819 with 4H174-AA, 1.97 with 4H43-AA and -1.63 in the assay with 4H2162-AA.

B8: 4H1626-AA (peptide)
chain: DENAALKAEIAALKAENAALKAEIAALKG
As for B8, the interaction score with 4H1864-AA was -1.36; in the assay with 4H174-AA, -1.63; in the assay with 4H2162-AA, -1.39; with 4H2592-AA it was -1.24.

B9: 4H2165-AA (peptide)
chain: DKIAALEAEIAALKAKNAALEAKIAALEG
With B9, the interaction score in the assay with 4H335-AA was -1.5; with 4H906-AA, -1.29; in the assay with 4H2277-AA, -1.36; with 4H2575-AA, -1.19; in the assay with 4H678-AA it was -0.25; in the assay with 4H794-AA, -1.31. Also, the interaction score in the assay with 4H3427-AA was -1.3; with 4H2592-AA it was -0.973; with 4H2505-AA, -1.7.

B10: 4H1064-AA (peptide)
chain: DENAALEAEIAALEAKIAALEAKNAALKG
Turning to B10, the interaction score in the assay with 4H464-AA is -1.84; in the assay with 4H2903-AA, 1.45; with 4H446-AA, -1.26; with 4H1913-AA, -0.972; with 4H2961-AA it was -1.24; with 4H3969-AA, -1.31. The values for the interaction score with 4H2621-AA and with 4H63-AA were -1.07 and -1.29, respectively.

B11: 4H1350-AA (peptide)
chain: DENAALEAKIAALKAEIAALEAKIAALKG
Turning to B11, the interaction score with 4H2622-AA is 1.12; with O14-AA it was -0.655; in the assay with 4H3625-AA, 1.97; with 4H4038-AA, 0.909; in the assay with 4H43-AA it was 2.09.

B12: 4H1845-AA (peptide)
chain: DENAALKAKIAALEAKNAALEAKIAALEG
Turning to B12, the interaction score with 4H2648-AA is -1.59; in the assay with 4H3056-AA, -1.58; in the assay with 4H3413-AA, -0.729; with 4H3427-AA, -1.86; in the assay with 4H3378-AA it was -1.04; with 4H3855-AA, -1.94.

B13: 4H1257-AA (peptide)
chain: DENAALEAENAALKAKIAALKAEIAALEG
B13: the interaction score with 4H464-AA (mean of both orientations) was -1.07; with 4H1845-AA, -1.49; with 4H2903-AA, -1.62; in the assay with 4H446-AA, -1.65; with 4H1913-AA, -0.977; in the assay with 4H2961-AA, -1.08. The interaction score is 0.285 in the assay with 4H3969-AA; -0.883 with 4H2621-AA; -1.17 with 4H3427-AA; -0.401 with 4H3855-AA; -1.72 in the assay with 4H63-AA.
